One experiment deals with H3 22-41 (Homo sapiens, unmodified; biotin, attachment site not given). Description: FACS; yeast surface display titration.
Another experiment deals with H3K18me2 (Homo sapiens, dimethyl-Lys18 (mature numbering); biotin, attachment site not given; limits assumed from the H3 1-21 control). The experiment can be described thus: FACS; yeast surface display titration.

B1: bromo-adjacent homology domain of ASH1L (domain or fragment)
chain: NFHSFNVEKQQLCKCGFEKCRGIIGGKSQRVNGLTSSKNSQPMATHKKSGRSKEKRKSKHKLKKRRGHLSEEPSENINTPTRLTPQLQMKPMSNRERNFVLKHHVFLVRNWEKIRQKQEEVKHTSDNIHSASLYTRWNGICRDDGNIKSDVFMTQFSALQTARSVRTRRLAAAEENIEVARAARLAQIFKEICDGIISYKDSSRQALAAPLLNLPPKKKNADYYEKISDPLDLITIEKQILTGYYKTVEAFDADMLKVFRNAEKYYGRKSPVGRDVCRLRKAYYNARHEASAQIDEIVGETASEADSSETSVSEKENGHEKDDDVIRCICGLYKDEGLMIQCDKCMVWQHCDCMGVNSDVEHYLCEQCDPRPVDREVPMIPRPHYAQPGCVYFICLLRDDLLLRQGDCVYLMRDSRRTPDGHPVRQSYRLLSHINRDKLDIFRIEKLWKNEKEERFAFGHHYFRPHETHHSPSRRFYHNELFRVPLYEIIPLEAVVGTCCVLDLYTYCKGRPKGVKEQDVYICDYRLDKSAHLFYKIH
The molecule B1 displayed a Kd with H3 22-41 of 6.5 µM.

B2: tandem Tudor domains of UHRF1 (domain or fragment)
chain: WDETELGLYKVNEYVDARDTNMGAWFEAQVVRVTRKAPSRDEPCSSTSRPALEEDVIYHVKYDDYPENGVVQMNSRDVRARARTIIKWQDLEVGQVVMLNYNPDNPKERGFWYDAEISRKRETRTARELYANVVLGDDSLNDCRIIFVDEVFKIERPGE
As to B2, the Kd with H3K18me2 worked out at 5 µM.
